Experimental findings from patent publication US12435158 are described below.

What is called Kd is the free concentration of one partner at which half of the binding sites on the other are occupied at equilibrium, for simple one-to-one binding. The low end stands for higher affinity, the high end for lower affinity.

Common to all, as to assay: SPR Biacore 8k, antibody captured
(In general: SPR reads the build-up and loss of mass on a sensor chip optically.)

The target of test [1] is lambda Bence Jones protein Lam134c.
Test [2] has as its target lambda Bence Jones protein Lam788a.
Test [3] addresses lambda free light chain Sigma.
The target of test [4] is lambda free light chain MyBio.
Test [5] concerns the target lambda Bence Jones protein Lam885.
For test [6], the target named is lambda Bence Jones protein Lam893c.

B1: 10B3-VL1 (antibody, human IgG1, kappa, V domains shown)
VH: EVQLVESGGGLVKPGGSLRLSCAASGFTFSSYSMNWVRQAPGKGLEWVSFISSNRNYIYYADSVKGRFTISRDNAKNSLYLQMNSLRAEDTAVYYCASLANWGTYFDYWGQGTLVTVSS
VL: DIQMTQSPSSLSASVGDRVTITCRASQGISSWLAWYQQKPEKAPKSLIYAASSLQSGVPSRFSGSGSGTDFTLTISSLQPEDFATYYCRQYNSYPLTFGGGTKVEIRR
Turning to B1, the Kd worked out at 0.0453 nM in test [1]; 0.11 nM in test [2]; 0.522 nM in test [3]; 0.0437 nM in test [4]; 0.0707 nM in test [5]; 0.0401 nM in test [6].
